In patent publication US20200072853A1 one finds OD and OD 490 nm data, which are given here for 2 substances.

Experiment [1] deals with human proBNP(1-108), recombinant protein produced in E. coli (non-glycosylated) (human) (UniProt P16860). Put plainly: sandwich ELISA; capture hinge 76; proBNP(1-108) 312.5 pg/ml; detection mAb-peroxidase 0.5 ug/ml. In general terms: An ELISA detects its analyte on a solid surface through an enzyme-linked reagent.
The target of experiment [2] is human BNP(1-32) (human). Put plainly: sandwich ELISA; capture L21016; BNP(1-32) 5,000 pg/ml; detection mAb 0.5 ug/ml.
Experiment [3] addresses human proBNP(1-108), recombinant protein produced in E. coli (non-glycosylated) (human) (UniProt P16860). Put plainly: sandwich ELISA; capture hinge 76; proBNP(1-108) 5,000 pg/ml; detection mAb-peroxidase 0.5 ug/ml.
In experiment [4] the target is human BNP(1-32) (human). Put plainly: sandwich ELISA; capture L21016; BNP(1-32) 625 pg/ml; detection mAb 0.5 ug/ml.
For experiment [5], the target named is human BNP(1-32) (human). The experiment is described as follows: sandwich ELISA; capture L21016; BNP(1-32) 78 pg/ml; detection mAb 0.5 ug/ml.
Experiment [6] deals with human proBNP(1-108), recombinant protein produced in E. coli (non-glycosylated) (human) (UniProt P16860). The experiment is described as follows: sandwich ELISA; capture hinge 76; proBNP(1-108) 0 pg/ml (blank); detection mAb-peroxidase 0.5 ug/ml.
For experiment [7], the target named is human BNP(1-32) (human). Put plainly: sandwich ELISA; capture L21016; BNP(1-32) 312.5 pg/ml; detection mAb 0.5 ug/ml.
Experiment [8] addresses human BNP(1-32) (human). The experiment is described as follows: sandwich ELISA; capture L21016; BNP(1-32) 156.25 pg/ml; detection mAb 0.5 ug/ml.
In experiment [9] the target is human BNP(1-32) (human). The experiment is described as follows: sandwich ELISA; capture L21016; BNP(1-32) 0 pg/ml (blank); detection mAb 0.5 ug/ml.
The target of experiment [10] is human proBNP(1-108), recombinant protein produced in E. coli (non-glycosylated) (human) (UniProt P16860). Put plainly: sandwich ELISA; capture hinge 76; proBNP(1-108) 10,000 pg/ml; detection mAb-peroxidase 0.5 ug/ml.
The target of experiment [11] is human BNP(1-32) (human). The experiment is described as follows: sandwich ELISA; capture L21016; BNP(1-32) 10,000 pg/ml; detection mAb 0.5 ug/ml.
For experiment [12], the target named is human proBNP(1-108), recombinant protein produced in E. coli (non-glycosylated) (human) (UniProt P16860). The experiment is described as follows: sandwich ELISA; capture hinge 76; proBNP(1-108) 625 pg/ml; detection mAb-peroxidase 0.5 ug/ml.
The target is the same in experiment [13]. Put plainly: sandwich ELISA; capture hinge 76; proBNP(1-108) 1,250 pg/ml; detection mAb-peroxidase 0.5 ug/ml.
The target is the same in experiment [14]. Put plainly: sandwich ELISA; capture hinge 76; proBNP(1-108) 2,500 pg/ml; detection mAb-peroxidase 0.5 ug/ml.
Experiment [15] shares this target. The experiment is described as follows: sandwich ELISA; capture hinge 76; proBNP(1-108) 20 pg/ml; detection mAb-peroxidase 0.5 ug/ml.
The target is the same in experiment [16]. Put plainly: sandwich ELISA; capture hinge 76; proBNP(1-108) 39 pg/ml; detection mAb-peroxidase 0.5 ug/ml.
For experiment [17] the target is unchanged. The experiment is described as follows: sandwich ELISA; capture hinge 76; proBNP(1-108) 156.25 pg/ml; detection mAb-peroxidase 0.5 ug/ml.
Experiment [18] deals with human BNP(1-32) (human). The experiment is described as follows: sandwich ELISA; capture L21016; BNP(1-32) 39 pg/ml; detection mAb 0.5 ug/ml.
For experiment [19], the target named is human BNP(1-32) (human). The experiment is described as follows: sandwich ELISA; capture L21016; BNP(1-32) 20 pg/ml; detection mAb 0.5 ug/ml.
For experiment [20], the target named is human BNP(1-32) (human). The experiment is described as follows: sandwich ELISA; capture L21016; BNP(1-32) 1,250 pg/ml; detection mAb 0.5 ug/ml.
For experiment [21], the target named is human proBNP(1-108), recombinant protein produced in E. coli (non-glycosylated) (human) (UniProt P16860). Put plainly: sandwich ELISA; capture hinge 76; proBNP(1-108) 78 pg/ml; detection mAb-peroxidase 0.5 ug/ml.
The target in experiment [22] is human BNP(1-32) (human). The experiment is described as follows: sandwich ELISA; capture L21016; BNP(1-32) 2,500 pg/ml; detection mAb 0.5 ug/ml.

Chain of human proBNP(1-108), recombinant protein produced in E. coli (non-glycosylated) (human) (P16860 27-134): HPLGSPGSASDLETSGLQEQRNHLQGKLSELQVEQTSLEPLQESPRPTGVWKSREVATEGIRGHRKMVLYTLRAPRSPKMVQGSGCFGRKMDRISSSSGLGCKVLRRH
Chain of human BNP(1-32) (human) (peptide, as listed by the source): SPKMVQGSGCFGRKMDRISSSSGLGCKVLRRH

As to “24C5 monoclonal antibody (HyTest, Turku, Finland)”, the OD in experiment [1] was determined as 0.035 OD; in experiment [3], 0.117 OD; in [6], 0.044 OD; in [10] it was 0.22 OD; in [12], 0.07 OD; in experiment [13] it was 0.068 OD. Moreover, the OD in [14] came to 0.069 OD; in [15], 0.052 OD; in [16] it was 0.056 OD; in experiment [17], 0.055 OD; in experiment [21], 0.056 OD. The OD 490 nm in [2] came to 0.068 OD; in [4], 0.059 OD; in [5], 0.052 OD; in experiment [7] it was 0.063 OD; in experiment [8], 0.071 OD; in experiment [9], 0.071 OD. Further, the OD 490 nm was determined as 0.077 OD in experiment [11]; 0.055 OD in experiment [18]; 0.068 OD in [19]; 0.056 OD in experiment [20]; 0.067 OD in experiment [22].

With “26E2 monoclonal antibody (HyTest, Turku, Finland)”, the OD was 0.028 OD in experiment [1]; 0.041 OD in [3]; 0.024 OD in [6]; 0.158 OD in experiment [10]; 0.024 OD in experiment [12]; 0.024 OD in experiment [13]. Moreover, the OD was found to be 0.031 OD in experiment [14]; 0.028 OD in experiment [15]; 0.028 OD in experiment [16]; 0.027 OD in experiment [17]; 0.033 OD in experiment [21]. Besides, the OD 490 nm in [2] worked out at 0.041 OD; in experiment [4], 0.029 OD; in [5], 0.055 OD; in [7] it was 0.027 OD; in experiment [8], 0.032 OD; in experiment [9] it was 0.022 OD. The OD 490 nm in experiment [11] was found to be 0.048 OD; in [18] it was 0.032 OD; in experiment [19], 0.034 OD; in experiment [20] it was 0.031 OD; in experiment [22], 0.035 OD.
